This note sets out measurements from patent publication US6884879.

Where a chain is given by its changes, count along the chain named.

The target of experiment [1] is T1, VEGF (human, UniProt P15692-4 27-191, limits assumed).
T1 construct: also called human VEGF; biotinylated VEGF
As to the kind of experiment: competition ELISA (VEGF/KDR-IgG). As to the method: (§1) Diluted conditioned medium containing 3 ng/ml of KDR-IgG (Park et al., J. Biol. Chem. 269:25646–[…] (1994)) in blocking buffer were incubated on the plate for 1 h. […] The solutions from the tubes were then transferred to the ELISA plates and incubated for 1 h. […] Titration curves were fit with a four-parameter nonlinear regression curve-fitting program (KaleidaGraph, Synergy Software, Reading Pa.). […] Assays for full-length IgG were the same as for the F(ab)s except that the assay buffer contained 10% human serum.
(In an ELISA, binding on a coated surface is turned into a signal by an enzyme label.)

The target in experiment [2] is T1, VEGF. As to the kind of experiment: competition ELISA: biotinylated VEGF preincubated with F(ab), capture on KDR-IgG. On the procedure: as §1
For experiment [3], the target named is T2, VEGF121 (human, UniProt P15692-9 27-147).
T2 construct: also called Purified VEGF121
T2 sequence (looked up): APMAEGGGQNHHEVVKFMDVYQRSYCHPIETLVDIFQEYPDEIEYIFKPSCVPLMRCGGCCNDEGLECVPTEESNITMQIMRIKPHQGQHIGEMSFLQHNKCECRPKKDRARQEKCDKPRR
The experiment in a line: BIAcore SPR, VEGF121 immobilized, Fab in solution. As to the method:
(§2) Binding of humanized A4.6.1 Fab variants was measured by flowing solutions of Fab in PBS/0.05% TWEEN 20™ over the chip at a flow rate of 20 μL/min. Following each binding measurement, residual Fab was stripped from the immobilized ligand by washing with 5 μL of 50 mM aqueous HCl at 3 μL/min. Binding profiles were analyzed by nonlinear regression using a simple monovalent binding model (BIAevaluation software v2.0; Pharmacia).
Background: SPR reads the build-up and loss of mass on a sensor chip optically.

Experiment [4] concerns the target T2, VEGF121. The experiment in a line: BIAcore SPR, VEGF121 immobilized. On the procedure:
as §2

The target of experiment [5] is rhVEGF165 (human, UniProt P15692 27-191, limits assumed). The experiment in a line: cell-based or functional assay.
In experiment [6] the target is T1, VEGF. The experiment in a line: competition ELISA: biotinylated VEGF preincubated with IgG, capture on KDR-IgG, 10% human serum. On the procedure:
as §1
[c]murIgG1 is muMAbVEGF A461 purified from ascites.

B1: F(ab)-4 (Fab, V domains shown)
VH: EVQLVESGGGLVQPGGSLRLSCAASGYTFTNYGMNWVRQAPGKGLEWVGWINTYTGEPTYAADFKRRFTISLDTSKNTLYLQMNSLRAEDTAVYYCARYPHYYGSSHWYFDVWGQGTLVTVSS
VL: DIQMTQSPSSLSASVGDRVTITCSASQDISNYLNWYQQKPGKAPKLLIYFTSSLHSGVPSRFSGSGSGTDFTLTISSLQPEDFATYYCQQYSTVPWTFGQGTKVEIK
notes: F(ab)-1 with ArgH71Leu and AsnH73Thr; human CL and CH1
B1: the “fold improvement of binding against F(ab)-1” value in experiment [1] amounted to 4 fold. Further, in experiment [2], the “EC50 F(ab)-X / EC50 chimeric F(ab)” value is > 295 ratio.

B2: hu2.10 (Fab, V domains shown)
VH: B1 VH with V37I, K76A, N77S, L79V, R98K
VL: B1 VL with F71Y
notes: Phage-selected consensus clone, tested as soluble Fab; also called consensus clone hu2.10
With B2, the “KD(A4.6.1)/KD(mut) as headed; fold weaker than the A4.6.1 chimera” value in experiment [3] came out at 35 ratio.

B3: F(ab)-3 (Fab, V domains shown)
VH: EIQLVQSGPELKQPGETVRISCKASGYTFTNYGMNWVKQAPGKGLKWMGWINTYTGEPTYAADFKRRFTFSLETSASTAYLQISNLKNDDTATYFCAKYPHYYGSSHWYFDVWGAGTTVTVSS
VL: B1 VL
As for B3, the “EC50 F(ab)-X / EC50 chimeric F(ab)” value in experiment [2] was 2.6 ratio.

B4: hu2.10V (Fab, V domains shown)
VH: B1 VH with V37I, K76A, N77S, L79V, R98K
VL: B1 VL with L46V, F71Y
notes: hu2.10 with Leu to Val at VL 46; soluble Fab
For B4, the “KD(A4.6.1)/KD(mut) as headed; fold weaker than the A4.6.1 chimera” value in experiment [3] worked out at 5.8 ratio. In addition, in experiment [4], the “fold improvement of KD against hu2.10” value was 6 fold.

B5: Y0313-1 (Fab, V domains shown)
VH: EVQLVESGGGLVQPGGSLRLSCAASGYDFTHYGMNWVRQAPGKGLEWVGWINTYTGEPTYAADFKRRFTFSLDTSKSTAYLQMNSLRAEDTAVYYCAKYPYYYGTSHWYFDVWGQGTL
VL: DIQLTQSPSSLSASVGDRVTITCRANEQLSNYLNWYQQKPGKAPKVLIYFTSSLHSGVPSRFSGSGSGTDFTLTISSLQPEDFATYYCQQYSTVPWTFGQGTKVEIKR
As for B5, the “potency in the HuVEC assay against the wild-type Fab (Y0192)” value in experiment [5] was 30 fold.

B6: chimeric IgG1 (antibody, V domains shown)
VH: B3 VH
VL: DIQMTQTTSSLSASLGDRVIISCSASQDISNYLNWYQQKPDGTVKVLIYFTSSLHSGVPSRFSGSGSGTDYSLTISNLEPEDIATYYCQQYSTVPWTFGGGTKLEIKR
notes: Murine A4.6.1 VL and VH fused to human kappa CL and human IgG1 heavy chain constant domains; also called chIgG1; chlgG1
Turning to B6, in experiment [6], the “IgG1/chlgG1 (ratio of EC50)” value turned out to be 1 ratio.

B7: muMAb VEGF A.4.6.1 (antibody, V domains shown)
VH: B3 VH
VL: B6 VL
notes: Original murine IgG1 purified from ascites; also called murIgG1; murlgG1
Regarding B7, in experiment [6], the “IgG1/chlgG1 (ratio of EC50)” value stood at 0.759 ratio.
